# Data published in article PMC10397247.
# T1: Core_NINN-es_KEKE
# T1 chain: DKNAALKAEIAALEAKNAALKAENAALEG
# T2: P4SN
# T2 chain: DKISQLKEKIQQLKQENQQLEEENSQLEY
# T3: Core_IINI-es_KEEE
# T3 chain: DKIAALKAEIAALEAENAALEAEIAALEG
# T4: Core_INNN-es_KKEE
# T4 chain: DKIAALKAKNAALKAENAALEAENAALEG
# T5: Core_NNNI-es_KEKE
# T5 chain: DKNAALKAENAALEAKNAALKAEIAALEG
# T6: P12mS
# T6 chain: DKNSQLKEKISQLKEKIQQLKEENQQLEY
# T7: P5mS
# T7 chain: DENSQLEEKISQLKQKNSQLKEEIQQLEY
# T8: P7mS
# T8 chain: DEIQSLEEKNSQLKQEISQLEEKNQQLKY
# T9: P8mS
# T9 chain: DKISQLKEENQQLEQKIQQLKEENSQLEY
# T10: P6mS
# T10 chain: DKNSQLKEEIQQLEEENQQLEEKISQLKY
# T11: P3mS
# T11 chain: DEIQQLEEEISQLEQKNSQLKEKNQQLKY
# T12: P4mS
# T12 chain: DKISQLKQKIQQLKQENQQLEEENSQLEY
# T13: P10mS
# T13 chain: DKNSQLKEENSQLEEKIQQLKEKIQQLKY
# T14: P11mS
# T14 chain: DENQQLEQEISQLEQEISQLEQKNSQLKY
# T15: P9mS
# T15 chain: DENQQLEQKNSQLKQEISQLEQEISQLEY
# T16: O6-bH
# T16 chain: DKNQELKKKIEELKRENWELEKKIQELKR
# T17: O16-bH
# T17 chain: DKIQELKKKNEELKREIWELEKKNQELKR
# T18: O7-bH
# T18 chain: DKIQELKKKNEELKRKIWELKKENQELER
# T19: O3-bH
# T19 chain: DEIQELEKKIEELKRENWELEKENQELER
# T20: O11-bH
# T20 chain: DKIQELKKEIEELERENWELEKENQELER
# T21: O9-bH
# T21 chain: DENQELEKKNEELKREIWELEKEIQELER
# T22: O13-bH
# T22 chain: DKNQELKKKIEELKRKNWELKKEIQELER
# T23: O2-bH
# T23 chain: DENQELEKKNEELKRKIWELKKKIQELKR
# T24: O8-bH
# T24 chain: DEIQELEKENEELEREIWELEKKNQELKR
# T25: O12-bH
# T25 chain: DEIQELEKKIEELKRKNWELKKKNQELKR
# T26: O15-bH
# T26 chain: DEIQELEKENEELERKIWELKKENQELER
# T27: O5-bH
# T27 chain: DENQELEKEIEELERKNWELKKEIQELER
# T28: O14-bH
# T28 chain: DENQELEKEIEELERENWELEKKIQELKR
# T29: O4-bH
# T29 chain: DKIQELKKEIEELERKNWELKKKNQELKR
# T30: O10-bH
# T30 chain: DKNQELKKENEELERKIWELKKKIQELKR
# T31: O1-bH
# T31 chain: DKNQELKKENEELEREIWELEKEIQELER
# T32: 4H2619-bA
# T32 chain: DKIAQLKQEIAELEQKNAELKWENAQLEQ
# T33: 4H1347-bA
# T33 chain: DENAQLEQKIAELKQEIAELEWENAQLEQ
# T34: 4H3632-bA
# T34 chain: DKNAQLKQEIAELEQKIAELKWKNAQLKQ
# T35: 4H496-bA
# T35 chain: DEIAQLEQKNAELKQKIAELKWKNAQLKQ
# T36: 4H342-bA
# T36 chain: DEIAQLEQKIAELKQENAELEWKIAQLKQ
# T37: 4H3070-bA
# T37 chain: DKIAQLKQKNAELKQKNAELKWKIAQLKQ
# T38: 4H145-bA
# T38 chain: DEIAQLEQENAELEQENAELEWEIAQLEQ
# T39: 4H2691-bA
# T39 chain: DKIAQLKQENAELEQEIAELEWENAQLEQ
# B1: Core_NINN-es_EKEK (peptide)
# chain: DENAALEAKIAALKAENAALEAKNAALKG
# B2: P3SN (peptide)
# chain: DEIQQLEEEISQLEQKNSELKEKNQELKY
# B3: Core_IINI-es_EKKK (peptide)
# chain: DEIAALEAKIAALKAKNAALKAKIAALKG
# B4: Core_INNN-es_EEKK (peptide)
# chain: DEIAALEAENAALEAKNAALKAKNAALKG
# B5: Core_NNNI-es_EKEK (peptide)
# chain: DENAALEAKNAALKAENAALEAKIAALKG
# B6: P10mS (peptide)
# chain: DKNSQLKEENSQLEEKIQQLKEKIQQLKY
# B7: O1-bH (peptide)
# chain: DKNQELKKENEELEREIWELEKEIQELER
# B8: 4H1347-bA (peptide)
# chain: DENAQLEQKIAELKQEIAELEWENAQLEQ
# What was measured:
# [1] = molecular target: T1, Core_NINN-es_KEKE; assay: two-hybrid library CCmax; conditions: mean of both orientations;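 note: natural log of median RNA to DNA barcode read ratio; higher means stronger binding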
# [2] = molecular target: T2, P4SN; assay: two-hybrid library CCNG1; conditions: mean of both orientations;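 note: natural log of median RNA to DNA barcode read ratio; higher means stronger binding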
# [3] = molecular target: T2, P4SN; assay: two-hybrid library CCmax;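 note: natural log of median RNA to DNA barcode read ratio; higher means stronger binding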
# [4] = molecular target: T3, Core_IINI-es_KEEE; assay: two-hybrid library CCmax; conditions: mean of both orientations;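 note: natural log of median RNA to DNA barcode read ratio; higher means stronger binding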
# [5] = molecular target: T4, Core_INNN-es_KKEE; assay: two-hybrid library CCmax; conditions: mean of both orientations;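 note: natural log of median RNA to DNA barcode read ratio; higher means stronger binding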
# [6] = molecular target: T5, Core_NNNI-es_KEKE; assay: two-hybrid library CCmax; conditions: mean of both orientations;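 note: natural log of median RNA to DNA barcode read ratio; higher means stronger binding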
# [7] = molecular target: T6, P12mS; assay: two-hybrid library CCNG1
# [8] = molecular target: T7, P5mS; assay: two-hybrid library CCNG1
# [9] = molecular target: T8, P7mS; assay: two-hybrid library CCNG1
# [10] = molecular target: T9, P8mS; assay: two-hybrid library CCNG1
# [11] = molecular target: T10, P6mS; assay: two-hybrid library CCNG1
# [12] = molecular target: T11, P3mS; assay: two-hybrid library CCNG1
# [13] = molecular target: T12, P4mS; assay: two-hybrid library CCNG1
# [14] = molecular target: T13, P10mS; assay: two-hybrid library CCNG1
# [15] = molecular target: T14, P11mS; assay: two-hybrid library CCNG1
# [16] = molecular target: T15, P9mS; assay: two-hybrid library CCNG1
# [17] = molecular target: T16, O6-bH; assay: two-hybrid library CCNG1
# [18] = molecular target: T17, O16-bH; assay: two-hybrid library CCNG1
# [19] = molecular target: T18, O7-bH; assay: two-hybrid library CCNG1
# [20] = molecular target: T19, O3-bH; assay: two-hybrid library CCNG1
# [21] = molecular target: T20, O11-bH; assay: two-hybrid library CCNG1
# [22] = molecular target: T21, O9-bH; assay: two-hybrid library CCNG1
# [23] = molecular target: T22, O13-bH; assay: two-hybrid library CCNG1
# [24] = molecular target: T23, O2-bH; assay: two-hybrid library CCNG1
# [25] = molecular target: T24, O8-bH; assay: two-hybrid library CCNG1
# [26] = molecular target: T25, O12-bH; assay: two-hybrid library CCNG1
# [27] = molecular target: T26, O15-bH; assay: two-hybrid library CCNG1
# [28] = molecular target: T27, O5-bH; assay: two-hybrid library CCNG1
# [29] = molecular target: T28, O14-bH; assay: two-hybrid library CCNG1
# [30] = molecular target: T29, O4-bH; assay: two-hybrid library CCNG1
# [31] = molecular target: T30, O10-bH; assay: two-hybrid library CCNG1
# [32] = molecular target: T31, O1-bH; assay: two-hybrid library CCNG1
# [33] = molecular target: T32, 4H2619-bA; assay: two-hybrid library CCNG1
# [34] = molecular target: T33, 4H1347-bA; assay: two-hybrid library CCNG1
# [35] = molecular target: T34, 4H3632-bA; assay: two-hybrid library CCNG1
# [36] = molecular target: T35, 4H496-bA; assay: two-hybrid library CCNG1
# [37] = molecular target: T36, 4H342-bA; assay: two-hybrid library CCNG1
# [38] = molecular target: T37, 4H3070-bA; assay: two-hybrid library CCNG1
# [39] = molecular target: T38, 4H145-bA; assay: two-hybrid library CCNG1
# [40] = molecular target: T39, 4H2691-bA; assay: two-hybrid library CCNG1
binder,measurement,setting,value
B1,interaction score,[1],1.51
B2,interaction score,[2],1.25
same,interaction score,[3],-0.993
B3,interaction score,[4],2.08
B4,interaction score,[5],1.67
B5,interaction score,[6],2.1
B6,interaction score,[7],0.126
same,interaction score,[8],-1.28
same,interaction score,[9],0.649
same,interaction score,[10],-0.478
same,interaction score,[11],-2.03
same,interaction score,[12],-1.79
same,interaction score,[13],0.178
same,interaction score,[14],-0.344
same,interaction score,[15],0.347
same,interaction score,[16],-0.677
B7,interaction score,[17],-0.62
same,interaction score,[18],-0.655
same,interaction score,[19],-0.877
same,interaction score,[20],-1.49
same,interaction score,[21],-0.522
same,interaction score,[22],-2.31
same,interaction score,[23],0.467
same,interaction score,[24],-0.214
same,interaction score,[25],-2.35
same,interaction score,[26],-0.434
same,interaction score,[27],-0.695
same,interaction score,[28],-1.92
same,interaction score,[29],-0.549
same,interaction score,[30],-1.15
same,interaction score,[31],0.782
same,interaction score,[32],-0.259
B8,interaction score,[33],-0.421
same,interaction score,[34],-0.84
same,interaction score,[35],1.92
same,interaction score,[36],-0.596
same,interaction score,[37],-0.567
same,interaction score,[38],-0.786
same,interaction score,[39],-0.0112
same,interaction score,[40],-0.56
